Measured values reported in patent publication US11266675.

Biological target: Heat shock cognate protein 70 (Hsc70) (UniProt P11142)
Sequence (P11142 2-646): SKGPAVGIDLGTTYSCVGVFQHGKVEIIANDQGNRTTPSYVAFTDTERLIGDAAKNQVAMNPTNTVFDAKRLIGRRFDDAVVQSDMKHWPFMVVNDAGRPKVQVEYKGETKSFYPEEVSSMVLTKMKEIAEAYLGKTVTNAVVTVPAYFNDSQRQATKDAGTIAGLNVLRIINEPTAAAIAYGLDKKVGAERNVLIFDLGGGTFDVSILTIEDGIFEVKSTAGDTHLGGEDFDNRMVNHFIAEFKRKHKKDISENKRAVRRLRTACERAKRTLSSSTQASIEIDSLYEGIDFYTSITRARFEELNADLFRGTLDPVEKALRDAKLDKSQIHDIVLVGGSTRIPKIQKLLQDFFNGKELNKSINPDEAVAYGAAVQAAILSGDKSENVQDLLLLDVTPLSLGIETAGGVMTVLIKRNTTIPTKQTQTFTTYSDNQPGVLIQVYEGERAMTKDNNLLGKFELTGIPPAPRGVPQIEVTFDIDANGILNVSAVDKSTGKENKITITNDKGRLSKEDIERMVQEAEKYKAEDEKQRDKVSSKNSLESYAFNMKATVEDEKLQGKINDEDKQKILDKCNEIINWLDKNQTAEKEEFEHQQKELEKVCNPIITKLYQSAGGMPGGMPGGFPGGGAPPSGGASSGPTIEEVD

Substance: recombinant His-tagged 2A^pro (2A protease of EV-A71)
- cleavage of eIF4G by recombinant 2A^pro in vitro (immunoblot): the cleaved eIF4G was up-regulated in Hsc70 overexpressed cells, indicating an increase of 2A^pro proteolytic activity upon increased Hsc70 level
